Experiment: label from the status in PepcDB records

| Sequence | protein production |
| --- | --- |
| MIKAILIFNNHGKPRLCKFYQHYSEDTQQQIIRETFHLVSKRDENVCNFLEGGLLIGGSDNKLIYRHYATLYFVFCVDSSESELGILDLIQVFVETLDKCFENVCELDLIFHVDKVHNILAEMVMGGMVLETNMNEIVTQIDA | not failed |
| MIKGFRLWILIVSLGLSFSFLGYQWLTRYNFNTDHQVGDVIDSLNGVEIYYNGGVNTNEGRNLSLDGYNLGIKYQCVEFVKRYFYQRYQHQMPDSFGHARDFFDNLLTDGSWNEKRALRQFTNGSQSKPMADDLLVFAPWILNPYGHVAIIAAVTDKGIEIAQQNPGPFAPSREYFPLIQRDGLWYIDAPRAKGWLRWEATSPNVATENSGFIDPVMVIKELEHHHHHH | not failed |
| MIKIAIVGFGTVGQGVAELLIRKREEIEKAIGEFKVTAVADSKSSISGDFSLVEALRMKRETGMLRDDAKAIEVVRSADYDVLIEASVTRVDGGEGVNYIREALKRGKHVVTSNKGPLVAEFHGLMSLAERNGVRLMYEATVGGAMPVVKLAKRYLALCEIESVKGIFNGTCNYILSRMEEERLPYEHILKEAQELGYAEADPSYDVEGIDAALKLVIIANTIGVKASYEDVEVTGITQITPEAFQVAAEKGYTIRLIAEVSREKLKVSPRLVPFHHPLAIKGTMNAAMFKTDTAGSIFVAGRGAGKEETASAILSDLYEIYAGPR | failed |
| MIKISVIIPIYNAENYIEKAFSSLKNQTLAQNEFEILCIDDKSTDNSLGKLKQLSKIHKNMRIINLHKNSGGPMIPRNKGIKEAKGKYIIFLDNDDYLGEEALERLFIQAEKNQSEVIFGKYVGINGRGVPQSQFKKGNRNEADILADNLVYTLAPHKMFQTAFLKTKKIYFDPNILIGEDQYFVMKAYVNAKVITVLADYDYYYVVSRGDENLSIKESKMDPREICKVVPAVVKEIEASPLHPTYKKTLIRAYIQRYFNDYITGNYNLDYKNMSERQKTFVQVMKDTIVCHLDEKMKNELPTKTRFMIDIIAENNPEKLIDVRMQMENFSKNQVVKVENGYIKGRFRKMRPQLAYDDVYDINHLNSSKVQLHSVTLQNNNYLLDISLEQSLLTRFQTALRLCLKERDGNLEIWISPLKMLSTERGIYAVDSTLFNHTCIWDLFIESEINGFKNRKRVGKDRDFEEIVSSNNTPLLIQNNSYQIKAYFTTPFSNLSFQIISE | failed |
| MIKKIFALPVIEQISPVLSRRKLDELDLIVVDHPQVKASFALQGAHLLSWKPAGEEEVLWLSNNTPFKNGVAIRGGVPVCWPWFGPAAQQGLPAHGFARNLPWTLKSHHEDADGVALTFELTQSEETKKFWPHDFTLLAHFRVGKTCEIDLESHGEFETTSALHTYFNVGDIAKVSVSGLGDRFIDKVNDAKENVLTDGIQTFPDRTDRVYLNPQDCSVINDEALNRIIAVGHQHHLNVVGWNPGPALSISMGDMPDDGYKTFVCVETAYASETQKVTKEKPAHLAQSIRVAKR | not failed |
| MIKKTIGGIIPIFTAVFIPASAGAADLMLAQEYKGQDIAGWAMSEKLDGVRAYWDGKHLMSRQGYAFAPPKGFTAQFPPYPLDGELYSGRGQFEQISATVRSVSSDWRGIRLHVFDVPKAQGNLYQRLAVATQWLKTHPNAPITIIPQIKVRDRQHAMDFLKQIEAQGGEGVMLRQPESRYSGGRSSQLLKLKSQYDDECTVTRHYEGKGRNAGRLGAVGCKNRHGEFRIGSGFKDKDRDNPPKIGTLITYRYRGFTRKGTPKFATFVRVRTDR | failed |
| MIKLIKNEIIKMLFKKKVILIMAIILIEACAFAYGQNNKYQRTVRSYVNSNSSSYNWRPLINQQIQDLQSKLKYRTVKKSEEKSINIQMEQYRYYLKNNINPITPTAGNFTSNIMAQSVTLLLPLLVIILASDIVSSEFSSRTIKVLLTRAVPRWKILLSKYIALIIMSAFVVFLTTIIPLIVSLVVFKRTGFGEPVITGYKVIAGKVDASNVVGIYQWYYILIMSALSFFISIVVGSISFMISIFVKSIGASIGIMMSALIGGNILSVFLDDIEAAKYFFVVNLNLPQYLTGKMRIVSGMNFDFSIMVLLIWSMASIVISFYVFNKKDVLV | failed |
| MIKLPVLLADINIQSLPTEPELILNNLAITTLVENLIILLLVATLVALVARWLKIPYVIGLVLAGLAIPRGLSVGLNPELILNFFLPILIFEAAINTDISRLRSTIKPITVLAGPGVVISAAITAVLLKIGLGLAWVTAAGVSVILTITDTVSVIAAFRSVPVPRRLATIVEGESMLNDGVAMVLLSVITTIHIQGGFSAGEGIRQIFVAFVGGGLVGLGLGYLCVGLFRQLNDDLSDILLTVSVSLGTFQIGQMLGVSSAIAVVVAGLVIGNLALKQTSASIKVTLLSFWEYAGFGVNTLIFLLVGIEVYPSILLSTIPAALIAIVAYQIGRVFSIYPLLYLLSFFDRPLPLRWQHVLIAGNVKGSLSMALALALPLTLPGRDQVVTLVFSTVMVSLIGQGLSLPWVVKKLQLSKPSPLAQKIAMLQLNLVTAKAAQGELKYLLEAGSLPKFLYEELFADYQARIANSEQELREFYNQRNLIFSEGEVEKKYIDGLYRRLYIAEKSAINDALAKGILADDISDEYLQVLNEKLLALQDD | failed |
| MIKLYSPYAFLSKYLGAILLSFFCYYAKEIGCNNLTLSVWNDNEGALRFYQRQGMKPQETTMEMIID | failed |
| MIKPELPSNEAERLAALRQYDVLDSPAERAFDDLTMIASTLCETQMAAVVLVDEDRQWFKSAHGAPRSEAPRDISFCAHAILRPDEVLMVDDTLLDPRFHDNPMVVGSGGVRFYAGAPLVTSQGMALGSLCVFDQAPAHLREDQREALQALSRQASQLLELRLAGRQLRQQLHEREWYEQQMAGYYAQMDALHADLVEQTRTDPLTGLPNRRAFAVALAAATEQTRAVGQPLSVALLDVDHFKTVNDVHGHDQGDAVLRELSTLLRAHMAGAGTIARYGGEEFVLLLPNANLLQARVQCEYLRQSVAAMTIALPVTVSIGVATLYPQESVEAVIKRADQALYAAKRGGRDQVVALE | failed |
| MIKSIKKNLKPKILISNLILIIGIVIFVTLYGAVFGSANSLVGVCAITAMLMFVDVHLSLKLNEAIITTVLSFVLMGVSSQIASINPFLGFVVNFISIFVVSYLVTNAMETKAYLPFILCYVFIEGTPITWSELPRRLIALFVGGALIALVYYFSHRKKDDSDHMNISEMIKTMNKNTLQFNFSLRMALAVSIAMLLGSILGFQKSMWISITAMSITQPHFDDTKTRVKERFFGTLIGSAIFVLIFVYIVPQQFSSIVLLILSYIYTFIKEYKIKMIFITMSSLGAAMILFQPGVSVPMRIAFIVMGIGIALVVNKVIYGRLKLEESNEELDETIKDIDKVNDEF | failed |
| MIKTEKNQTSKVTDEVDQLVQRSKKALAILKSYTQAQIDDLCEKVAVAALDNHMKLAKLAVEETGRGVVEDKAIKNIYASEYIWNSMRHDKTVGVIKEDDEEQLMEIAEPVGIVAGVTPVTNPTSTTVFKTLISLKGRNTIVFGFHPQAQKCSSAAADVMREAIKAAGGPADAVLYIEHPSIEATDALMHHTDVATILATGGPSMVTAAYSSGKPALGVGPGNGPTYVEKTADIKQAVNDIVLSKTFDNGMICASE | failed |
| MIKVKSPGRVNLIGEHTDYTYGYVMPMAINLYTKIEAEKHGEVILYSEHFGEERKFSLNDLRKENSWIDYVKGIFWVLKESDYEVGGIKGRVSGNLPLGAGLSSSASFEVGILETLDKLYNLKLDSLSKVLLAKKAENEFVGVPCGILDQFAVVFGREGNVIFLDTHTLDYEYIPFPKDVSILVFYTGVRRELASSEYAERKHIAEESLKILGKGSSKEVREGELSKLPPLHRKFFGYIVRENARVLEVRDALKEGNVEEVGKILTTAHWDLAKNYEVSCKELDFFVERALKLGAYGARLTGAGFGGSAIALVDKEDAETIGEEILREYLKRFPWKARHFIVEPSDGVGI | not failed |
| MILLSFNILVLYQNVQISLSSGICFRLYSEVLSYILIYVAVWLTLYGIDLLNTVYGASDSRSVSKSAVSKRTLAVLPCSSCRINKRCIENGHLQSATNKTSFVC | failed |
| MILPEYNETDFMQAVINAAPTPIFYKDAQGRYLGCNKAFEEYIGLNREQLIGKSVLELFDDELARTYFEADNALFERKGTQIYEAKVEYADGTTHDVMFHKAYFHAEGIEGIVGSILDITERKKAEKSLEQLALSDSLTGLDNRYSLMKSLKHSLLRQHRENFTLAFLMLDLDGFKQINDNYGHPVGDALLIEVANKLKNHFRESDVIARVGGDEFSVILENIHSTESLIVLANNILAEFLKPFVIDNNKFTIGISIGIATSSFSECSSEDIIKHADAALYQVKNSGKGSYHLTVVN | failed |
| MILPPIPTPFDREGRLDEEAFRELAQALEPLVDGLLVYGSNGEGVHLTPEERARGLRALRPRKPFLVGLMEETLPQAEGALLEAKAAGAMALLATPPRYYHGSLGAGLLRYYEALAEKMPLFLYHVPQNTKVDLPLEAVEALAPHPNVLGIKDSSGDLSRIAFYQARLQEFRVYTGHAPTFLGALALGAEGGILAAANLAPRAYRALLDHFREGRLAEAQELQKKLFPLGDLLAKGGVPLLKQALRHLGLPAGYPRPPYPAESPLWERFLPVLEGLKEEGWVL | not failed |
| MILPTKAMATQELTVKRKLSGNTLQVQASSPVALGVRIPTVALHMMELFDTTVEQLYSIFTVKELTNKKIIMKWRCGNWPEEHYAMVALNFVPTLGQTELQLKEFLSICKEENMKFCWQKQHFEEIKGSLQLTPLNG | failed |
| MILQSTSLFCKYINNCRYINREIVATLKASPQGLARIKQARSDRGWSVDDFRWLELASEILGVCWQENGVLAAGISEGTWKRFLAGKQAINAEAFKAYCQVLGLNWEEVQEGGRTKERKDTGTSRQEKFLSSSHPHTDWGEAPDVSIFYGRSEELDTVKRWVTQENCRLITLLGMGGIGKTTLSVKLAQEIINSEKIYLSQSPEYIIWRSLRNAPPVEDILAELIQFLSGQQETNLSNHLQGRISLLLKNLRSSRCLIILDNAESILQAGDRNGRYRAGCEGYGQFLQCIAETSHQSCLILTSREKPQGLAKYEGDSLPVRSLPLTGLQEQEGRELFNVKGKFAASCDQWQVLISRYGGNPLALKIVASSIRDFFDGDVSQFLEVSQQGTFIFDDIRDLLDQQFQRLTTLEREIMYWLAINREPVTLAELQADFVANIPPRELLESLSSLQRRSLIEKSAGGFTQQPVVMEYVSNHLIEQVCEEMREWGLVRSRGAEEQRSRGEKIHTQYKLNAALPLTALSTPLFTTHALIKAQAKDYVRESQISLILQPLINQLITEFGSLENISNCLVHILSRLRGKSPQETGYAGGNVLNLLHHAQVDLSGYDFSGLTVWQAYLQGVNLHDVDFANSDLSCCVFTETLGNILSAAFSPEGQLLATCDTDCHVRVWEVKSGKLLLICRGHSNWVRFVVFSPDGEILASCGADENVKLWSVRDGVCIKTLTGHEHEVFSVAFHPDGETLASASGDKTIKLWDIQDGTCLQTLTGHTDWVRCVAFSPDGNTLASSAADHTIKLWDVSQGKCLRTLKSHTGWVRSVAFSADGQTLASGSGDRTIKIWNYHTGECLKTYIGHTNSVYSIAYSPDSKILVSGSGDRTIKLWDCQTHICIKTLHGHTNEVCSVAFSPDGQTLACVSLDQSVRLWNCRTGQCLKAWYGNTDWALPVAFSPDRQILASGSNDKTVKLWDWQTGKYISSLEGHTDFIYGIAFSPDSQTLASASTDSSVRLWNISTGQCFQILLEHTDWVYAVVFHPQGKIIATGSADCTVKLWNISTGQCLKTLSEHSDKILGMAWSPDGQLLASASADQSVRLWDCCTGRCVGILRGHSNRVYSAIFSPNGEIIATCSTDQTVKIWDWQQGKCLKTLTGHTNWVFDIAFSPDGKILASASHDQTVRIWDVNTGKCHHICIGHTHLVSSVAFSPDGEVVASGSQDQTVRIWNVKTGECLQILRAKRLYEGMNITGVTGLTKATIFTLQALGALR | failed |

Source: a protein production outcome set (Wang et al. 2014)
